Results reported in PMC5382158 (Frontiers in Cellular and Infection Microbiology, 2017).

T1: NarK2-T18 (M. tuberculosis, UniProt P9WJY7 1-395)
T1 sequence: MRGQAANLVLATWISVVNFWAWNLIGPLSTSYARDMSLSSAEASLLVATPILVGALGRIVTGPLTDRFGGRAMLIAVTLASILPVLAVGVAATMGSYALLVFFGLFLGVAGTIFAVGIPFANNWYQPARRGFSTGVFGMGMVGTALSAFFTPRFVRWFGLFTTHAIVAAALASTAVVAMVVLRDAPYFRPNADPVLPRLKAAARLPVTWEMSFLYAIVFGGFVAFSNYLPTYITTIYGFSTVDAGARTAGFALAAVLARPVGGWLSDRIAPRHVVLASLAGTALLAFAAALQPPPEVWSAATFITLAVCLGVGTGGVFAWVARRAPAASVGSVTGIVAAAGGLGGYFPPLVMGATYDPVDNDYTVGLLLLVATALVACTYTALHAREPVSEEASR

T2: Rv2617c-T18 (M. tuberculosis, UniProt I6XER9 1-146)
T2 sequence: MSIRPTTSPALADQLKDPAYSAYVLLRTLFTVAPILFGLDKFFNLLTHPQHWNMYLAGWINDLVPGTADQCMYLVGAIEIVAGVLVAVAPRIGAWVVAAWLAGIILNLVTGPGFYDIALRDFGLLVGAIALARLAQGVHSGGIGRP


Columns and labels:
Test in all cases: two-hybrid
[1] = target: NarI-T18 (M. tuberculosis)
NarK2-T18 = target: T1, NarK2-T18; settings: partners not purified
Rv2617c-T18 = target: T2, Rv2617c-T18; settings: partners not purified

Molecule	β-galactosidase activity [1]	β-galactosidase activity (NarK2-T18)	β-galactosidase activity (Rv2617c-T18)
KdpF-T25 (peptide)	720 Miller units	–	–
MTTVDNIVGLVIAVALMAFLFAALLFPEKF [KdpF-T25]	–	868 Miller units	1870 Miller units
